Measurements taken from the supplement of paper PMC9233669.
This sample holds only a part of the variants without activity.

Legend:
[1] = tested on: biotinyl-Leu-oxazolone; test: self-aminoacylation, catalytic enhancement (BLO) (fold over background); higher = more active; k-Seq, kA / k0A0; sequences stand for … in GGGAAUGGAUCCACAUCUACGAAUUC…UUCACUGCAGACUUGACGAAGCUG
Procedure, shortened: (§1)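 The uncatalyzed rate is the low-activity peak of a bimodal Gaussian fit, and catalytic enhancement is median kA divided by it. The kA values came from pseudo-first-order fits, with 1000 bootstraps, of per-sequence fraction reacted measured by streptavidin capture, triplicate qPCR and Illumina sequencing. Mutagenized RNA pools with a 21-nt variable region (0.43 μM) were reacted with each biotinyl-aminoacyl-oxazolone at 2–1250 μM in 50 μL HEPES/NaCl/KCl/MgCl2/CaCl2 buffer with 5% acetonitrile, pH 6.9–7.0, for 90 minutes at room temperature.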

[2] = tested on: biotinyl-Val-oxazolone; test: self-aminoacylation, catalytic enhancement (BVO) (fold over background); higher = more active; k-Seq, kA / k0A0; sequences stand for … in GGGAAUGGAUCCACAUCUACGAAUUC…UUCACUGCAGACUUGACGAAGCUG
Procedure, shortened: as §1

[3] = tested on: biotinyl-Met-oxazolone; test: self-aminoacylation, catalytic enhancement (BMO) (fold over background); higher = more active; k-Seq, kA / k0A0; sequences stand for … in GGGAAUGGAUCCACAUCUACGAAUUC…UUCACUGCAGACUUGACGAAGCUG
Procedure, shortened: as §1

[4] = tested on: biotinyl-Ile-oxazolone; test: self-aminoacylation, catalytic enhancement (BIO) (fold over background); higher = more active; k-Seq, kA / k0A0; sequences stand for … in GGGAAUGGAUCCACAUCUACGAAUUC…UUCACUGCAGACUUGACGAAGCUG
Procedure, shortened: as §1

[5] = tested on: biotinyl-Phe-oxazolone; test: self-aminoacylation, catalytic enhancement (BFO) (fold over background); higher = more active; k-Seq, kA / k0A0; sequences stand for … in GGGAAUGGAUCCACAUCUACGAAUUC…UUCACUGCAGACUUGACGAAGCUG
Procedure, shortened: as §1

[6] = tested on: biotinyl-Trp-oxazolone; test: self-aminoacylation, catalytic enhancement (BWO) (fold over background); higher = more active; k-Seq, kA / k0A0; sequences stand for … in GGGAAUGGAUCCACAUCUACGAAUUC…UUCACUGCAGACUUGACGAAGCUG
Procedure, shortened: as §1

Sequence	self-aminoacylation [1]	self-aminoacylation [2]	self-aminoacylation [3]	self-aminoacylation [4]	self-aminoacylation [5]	self-aminoacylation [6]
AUUCAGCUAGGUCAUCGGGUG [Fam2.2 aminoacylation ribozyme variant]	5.83	4.2	4.92	3.7	35	5.34
AGGUUUGGUAAUAGUCGCAAG [Fam3.1 aminoacylation ribozyme variant]	1.77	1.41	1.72	1.82	3.19	2.22
AUUACCCUGGUCAGCGAGAGA [Fam2.1 aminoacylation ribozyme variant]	1.26	1.51	1.27	1.43	0.961	1.54
AUUCAUCUGGGUCAUCGGGUG [Fam2.2 aminoacylation ribozyme variant]	10.3	4.92	7.57	5.22	53.2	7.66
UAGUUUGCUAGUAGUCGCAAG [Fam3.1 aminoacylation ribozyme variant]	1.1	0.974	1.17	1.09	1.53	0.854
CCACACUUCAAGCAAUCGGUU [Fam1B.1 aminoacylation ribozyme variant]	1.38	1.59	1.36	1.35	9.59	7.61
AUUCACCUAGUCCAUCGGGUG [Fam2.2 aminoacylation ribozyme variant]	6.98	3.82	6.16	3.54	40.5	6.38
AUCCCCCUGGUCAUCGAGUGA [Fam2.1 aminoacylation ribozyme variant]	6.5	4.12	5.79	3.85	45.2	7.31
AUUCACCUGGGUCCUCGGGUG [Fam2.2 aminoacylation ribozyme variant]	7.74	4.67	6.49	4.33	39	6.22
AAGUUUGCUAAUAGAGGCAAG [Fam3.1 aminoacylation ribozyme variant]	0.554	0.733	0.692	0.762	0.955	0.788
CUUACUCUGGUCAUCGAGUGA [Fam2.1 aminoacylation ribozyme variant]	5.28	3.07	4.98	2.54	14.2	5.52
CUACUUAAAACAAUCGGUCUA [Fam1A.1 aminoacylation ribozyme variant]	0.602	0.894	0.729	0.766	0.81	0.711
AUUCUCCUAGGUCAUCGAGUG [Fam2.2 aminoacylation ribozyme variant]	6.3	3.77	5.07	3.62	6.65	3.73
AUUCACCUACGUCAUCGGGUG [Fam2.2 aminoacylation ribozyme variant]	6.98	3.38	5.27	3.24	36.7	4.79
AUUCACCAAGGCCAUCGGGUG [Fam2.2 aminoacylation ribozyme variant]	5.34	3.49	5.09	3.32	30.1	4.57
CUACUUCAAACAAUCCGUCUU [Fam1A.1 aminoacylation ribozyme variant]	0.802	0.862	0.764	0.814	0.785	0.691
AAGGUUGCUAAUCGUCGCAAG [Fam3.1 aminoacylation ribozyme variant]	1.09	1.2	1.07	1.27	3.36	2.14
CUUCUUCAAACAAUCGGUCUC [Fam1A.1 aminoacylation ribozyme variant]	1.08	0.874	0.773	0.814	28.6	13.6
GCACACUUCUAGCAAUCGGUC [Fam1B.1 aminoacylation ribozyme variant]	0.999	1.22	0.936	1.2	1.34	1.28
AAGUUUGCUAGUAGUCGCGAG [Fam3.1 aminoacylation ribozyme variant]	1.25	1.54	1.08	1.27	3.65	2.01
CUACUUCAAACCAACGGUCUG [Fam1A.1 aminoacylation ribozyme variant]	0.587	1.02	0.68	0.786	1.44	0.556
